Changes are numbered by the printed parent chain.
T1: human Nectin-4 on cells (human, UniProt Q96NY8 32-510)
T1 construct: whole, on cells; also called HEK293 cells expressing human Nectin-4; T47D cells that express human Nectin-4
T1 sequence (looked up): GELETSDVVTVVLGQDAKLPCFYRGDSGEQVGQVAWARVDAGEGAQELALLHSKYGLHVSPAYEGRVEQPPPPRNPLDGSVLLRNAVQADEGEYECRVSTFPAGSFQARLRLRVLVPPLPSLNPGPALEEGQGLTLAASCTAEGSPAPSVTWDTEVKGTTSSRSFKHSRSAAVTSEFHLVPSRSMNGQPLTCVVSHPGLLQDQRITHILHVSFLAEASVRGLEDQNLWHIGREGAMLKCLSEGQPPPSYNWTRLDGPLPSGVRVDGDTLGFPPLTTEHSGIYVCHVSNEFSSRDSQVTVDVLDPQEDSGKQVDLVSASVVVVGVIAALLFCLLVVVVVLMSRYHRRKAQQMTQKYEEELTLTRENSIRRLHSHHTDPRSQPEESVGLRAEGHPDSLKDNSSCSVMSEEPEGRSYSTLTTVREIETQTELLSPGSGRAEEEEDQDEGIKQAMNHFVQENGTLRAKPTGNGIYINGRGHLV

T2: cynoNectin4-mFc (cyno, UniProt A0A2K5WES1 32-349)
T2 construct: Immobilized on the SPR chip; also called cyanoNectin4; not shown: mFc (mouse Fc)
T2 sequence: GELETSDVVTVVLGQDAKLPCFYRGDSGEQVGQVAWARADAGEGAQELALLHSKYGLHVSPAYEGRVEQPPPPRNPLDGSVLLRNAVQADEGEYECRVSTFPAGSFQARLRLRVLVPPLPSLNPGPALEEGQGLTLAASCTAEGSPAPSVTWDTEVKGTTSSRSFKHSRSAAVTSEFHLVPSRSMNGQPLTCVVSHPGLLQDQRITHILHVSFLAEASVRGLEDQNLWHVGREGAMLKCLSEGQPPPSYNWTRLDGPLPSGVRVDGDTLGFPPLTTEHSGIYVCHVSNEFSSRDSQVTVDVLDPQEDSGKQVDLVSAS

T3: huNectin4-His (human, UniProt Q96NY8 32-349)
T3 construct: Immobilized on the SPR chip; also called humanNectin4; human Nectin4; not shown: His tag
T3 sequence (looked up): T2 sequence with A39V, V230I

B1: BAP-143-wildtype (antibody, V domains shown)
VH: EVQLVESGGGLVQPGGSLRLSCAASGFTFSSYNMNWVRQAPGKGLEWVSYISSSSSTIYYADSVKGRFTISRDNAKNSLSLQMNSLRDEDTAVYYCARAYYYGMDVWGQGTTVTVSS
VL: DIQMTQSPSSVSASVGDRVTITCRASQGISGWLAWYQQKPGKAPKFLIYAASTLQSGVPSRFSGSGSGTDFTLTISSLQPEDFATYYCQQANSFPPTFGGGTKVEIK
notes: 150 kDa used in SPR; also called BAP143-00-00; benchmark (BM)
B2: BAP-143-00-05 (antibody, V domains shown)
VH: B1 VH with R98E
VL: B1 VL
notes: Used as a conjugate with a linker payload (CAB ADC)
B3: BAP-143-00-03 (antibody, V domains shown)
VH: B1 VH
VL: B1 VL with P96D
notes: as for B2
B4: BAP-143-00-06 (antibody, V domains shown)
VH: B1 VH with M104D
VL: B1 VL
notes: as for B2
B5: BAP-143-00-02 (antibody, V domains shown)
VH: B1 VH
VL: B1 VL with F94E
notes: as for B2
B6: BAP-143-00-04 (antibody, V domains shown)
VH: B1 VH with M34D
VL: B1 VL
notes: as for B2
B7: BAP-143-00-01 (antibody, V domains shown)
VH: B1 VH
VL: B1 VL with L33E
notes: as for B2

What follows are binders tested against T1, human Nectin-4 on cells (assay: FACS, T47D cells).

First: B1
Second: B2
The “Ratio (pH 7.4/6.0) of EC50” value of the first is lower: 0.9 for the first, 2.4 for the second.

Compared with B3, B4 is lower in “Ratio (pH 7.4/6.0) of EC50” value: 3.6 for the first, 2.6 for the second.

Going from B5 to B6, the “Ratio (pH 7.4/6.0) of EC50” value falls from 2.9 to 2.1.

With B7 the “Ratio (pH 7.4/6.0) of EC50” value was 6.7.

The binders below were run against T2, cynoNectin4-mFc (assay: SPR, cynoNectin4-mFc immobilized, pH 7.4).
Experimental: (§1) Binding kinetics of anti-Nectin4 antibodies were measured by surface plasmon resonance using a SPR2/4 instrument (Sierra Sensors, Hamburg, Germany) and flat amine sensor chips. The SPR sensor contained four flow cells (FC1-FC4), each of which was addressed individually or in groups. huNectin4-His was immobilized in FC2, and cynoNectin4-mFc in FC4. No protein was immobilized in FC1 and FC3 which were used as control surfaces for FC2 and FC4, respectively.
(§2) All injections were done at a flow rate of 25 μL/min at 25° C. The sensor surface was activated with 1-ethyl-3-(3-dimethylaminopropyl)-carbodiimide (EDC) and N-hydroxysuccinimide (NHS) (200 mM/50 mM) for 480 seconds. HuNectin4-His (2 μg/mL in 10 mM NaAc, pH4.5) was injected for 480s and the surface was inactivated by injecting 1M ethanolamine-HCl for 480s. CynoNectin4 was immobilized using the same conditions as described for huNectin4-His, except that the cynoNectin4 was diluted into 10 mM NaAc buffer having pH 5.0. The control surface was activated and deactivated using the same conditions, but without injecting protein. PBST buffer (PBS pH 7.4 with 0.05% TWEEN20™) was used as running buffer for the surface preparation. The running solution was switched to PBST with 30 mM sodium bicarbonate with the pH adjusted as indicated in the figures before the analyte injections. The instrument was equilibrated with the running solution for one hour before the first analyte injection.
(§3) The off-rate was measured for 360s. The chip surface was regenerated after each cycle of interaction analysis by injecting 6 μL of 10 mM glycine (pH 2.0). Flow cells 1 and 3 without immobilized protein were used as control surfaces for reference subtraction.

Compared with B1, B2 is 15-fold higher in Kd: 0.333 nM for the first, 4.89 nM for the second. The first binds more tightly here.

First: B3
Second: B4
The Kd of the first is 9.6-fold higher: 3.85 nM for the first, 0.4 nM for the second. The second binds more tightly here.

Going from B5 to B6, the Kd falls from 5.86 nM to 1.33 nM (4.4-fold). The second binds more tightly here.

Work on B7 yielded a Kd of 11.1 nM.

Going from B2 to B3, the koff falls from 0.00157 s⁻¹ to 0.000826 s⁻¹ (1.9-fold).

First: B4
Second: B5
The koff of the first is 5.8-fold lower: 0.000335 s⁻¹ for the first, 0.00195 s⁻¹ for the second.

B6 and B7 are within 1.5-fold of each other in koff: 0.00112 s⁻¹ for the first, 0.00162 s⁻¹ for the second.

B2 and B3 are within 1.5-fold of each other in kon: 322000 M⁻¹ s⁻¹ for the first, 215000 M⁻¹ s⁻¹ for the second.

Compared with B4, B5 is 2.5-fold lower in kon: 839000 M⁻¹ s⁻¹ for the first, 334000 M⁻¹ s⁻¹ for the second.

Going from B6 to B7, the kon falls from 840000 M⁻¹ s⁻¹ to 146000 M⁻¹ s⁻¹ (5.8-fold).

These binders were tested against T1, human Nectin-4 on cells (assay: cell-based or functional assay).

First: B2
Second: B3
The “Ratio (pH 7.4/6.0) of cell killing EC50” value of the first is lower: 2 for the first, 2.6 for the second.

Going from B4 to B5, the “Ratio (pH 7.4/6.0) of cell killing EC50” value rises from 1.2 to 1.7.

Compared with B6, B7 is lower in “Ratio (pH 7.4/6.0) of cell killing EC50” value: 2.7 for the first, 2.1 for the second.

The binders below were run against T3, huNectin4-His (assay: SPR, huNectin4-His immobilized, pH 6.0).
Experimental: as §1, §2, §3

Going from B1 to B2, the Kd rises from 1.49 nM to 6.37 nM (4.3-fold).

Going from B3 to B4, the Kd falls from 6.02 nM to 1.61 nM (3.7-fold).

First: B6
Second: B7
The Kd of the first is 4.8-fold lower: 2.58 nM for the first, 12.3 nM for the second.

Compared with B2, B3 is 2-fold lower in koff: 0.00242 s⁻¹ for the first, 0.00122 s⁻¹ for the second.

B4 and B6 are within 1.5-fold of each other in koff: 0.00114 s⁻¹ for the first, 0.00155 s⁻¹ for the second.

Work on B7 yielded a koff of 0.00367 s⁻¹.

First: B2
Second: B3
The kon of the first is 1.9-fold higher: 380000 M⁻¹ s⁻¹ for the first, 203000 M⁻¹ s⁻¹ for the second.

B4 and B6 are within 1.5-fold of each other in kon: 707000 M⁻¹ s⁻¹ for the first, 602000 M⁻¹ s⁻¹ for the second.

B7 showed a kon of 298000 M⁻¹ s⁻¹.
